Our source for the Kd values is publication PMC4989918.

The target in test [1] is Mb(BgaD_L14), purified monobody. The experiment in a line: bead-based binding assay read by flow cytometry.
Test [2] has as its target Mb(BgaD_L19) displayed on yeast. The experiment in a line: flow cytometry on cells. Background: In flow cytometry, cells or beads pass a laser one at a time.
The target of test [3] is Mb(BgaD_L23) displayed on yeast. Briefly: flow cytometry on cells.

As usually defined, the Kd is the constant that tells how readily two partners part at equilibrium.

B1: BgaD-D, β-galactosidase from Bacillus circulans ATCC 31382 (residues 36–847), biotinylated (enzyme)
chain: GNSVSYDGERRVNFNENWRFQRETNGSIAGAQNPGFDDSSWRKLNLPHDWSIELDFNKNSLATHEGGYLDGGIGWYRKTFTIPESMKGKRISLDFDGVYMNSTTYLNGEVLGTYPFGYNAFSYDISDKLYKDGRANVLVVKVNNTQPSSRWYSGSGIYRNVYLTVTDPIHVARYGTFVTTPNLEKSIKEDRADVNIKTKISNDAAEAKQVKIKSTIYDGAGNTVQTVETEEKTAAAGTVTPFEQNTVIKQPKLWSIDKPYRYNLVTEVIVGGQTVDTYETKFGVRYFKFDENEGFSLNGEYMKLHGVSMHHDLGALGAATNARGVERQMQIMKDMGVNAIRVTHNPASPELLEAANKLGLFIIEEAFDSWAQSKKPYDYGRFFNAWAEHDIKEMVDRGKNEPAIIMWSIGNEIYDTTNAAGVETARNLVGWVKEIDTTRPTTIGEDKTRGDKVNVTPINSYIKEIFNIVDVVGLNYSENNYDGYHKQNPSWKLYGSETSSATRSRGVYTHPYQYNQSTKYADLQQSSYDNDYVGWGRTAEDAWKYDRDLKHIAGQFIWTGFDYIGEPTPYYNSYPAKSSYFGAVDTAGFPKDIFYYYQSQWKKEPMVHLLPHWNWKEGEKVRVLAYTNASKVELVLNGESLGEKNYDNKQTSWGAPYKETKDGKTYLEWAVPFKPGKLEAVAKDENGKVIARDQVVTAGEPASVRLTADRKVVKADGTDLSFITADIVDSKGIVVPDADHLITFNVTGQGELAGVDNGNASSVERYKDNKRKAFSGKALAIVQSSKLSGKITVHASVAGLSSDSTSVFTVTP
modifications: biotin on the biotin-acceptor tag (in vivo biotinylation)
As to B1, the Kd came out at 31 nM in test [1], 600 nM in test [2] and 12 nM in test [3].
